# Assay: soluble on expression in E. coli; label from the status in PepcDB or PDB records
row,Sequence,soluble on expression in E. coli
1,SAVKAQVLYDFTAEPGNNELTVHEGETLTITNQNVGGGWVEAQNSRGNVGLVPVDYVEVNSASAQAPATQYIDARNQGNNNSTANTQGVNGNEAWTATTWSNSYPADNWNYTEQEPAGNNGSVYSFDEEWDDDSDDGKSTGGYGGSQAEDGGTMQRSGAHSTMKLSLNKFPGFSKTPNPEVYLLTKHITKGNDRLSVYPGEVGPVWLYPQTQLDCVVADPKKGSKMYGLKSYIEYQITPNTTNRPVNHRYKHFDWLYERLVEKFACALPVPGLPDKQVTGRFEEEFIKMRMERLQGWMSRMCRHPVISNSEVFQLFLNYRDEKEWKLGKRKAEKDETVGVKIFSTIDPELPELDPAQVEQKYEVYNQFTRSMDNSVKELLAVGNLHWKRCTGPLQKEYRQIGKAFQNMSSVFNTSGYPRESTLTEALTATGKTYEEIAEVIAAQPRKDLHFLLETNNEYKGLLGCFPDTIGVHKAAIDKVKEADHLVMTNKISQQDKHTMEKNLSTMSYALQAEMNHFHSNRIYDYNRLMQFYLEEQVKFYETIAEKLKKALGQYTTI,soluble
2,MQLDRVDRKILNELYNDSRLSMRELAKRVNLSAPSTSERVRKLESEGVIQKYTIDIDYKKAGLVLDCILEITLKNGDTTRMQQFIQSYPSASFCYRVTGSLCYIVKISVPSLVELEEFINDVSSYATTVSHIVLSEVSLTPDIEHIFPED,not soluble
3,MISILRRGLLVLLAAFPLLALAVQTPHEVVQSTTNELLGDLKANKEQYKSNPNAFYDSLNRILGPVVDADGISRSIMTVKYSRKATPEQMQRFQENFKRSLMQFYGNALLEYNNQGITVDPAKADDGKRASVGMKVTGNNGAVYPVQYTLENIGGEWKVRNVIVNGINIGKLFRDQFADAMQRNGNDLDKTIDGWAGEVAKAKQAADNSPEKSVKLEHHHHHH,soluble
4,TILVAIANDSVSPAVIDTAVRLADGLDEELYVVHLVDENTADGTAMQLRDEMRDRFRDATVVATVAIEHVGRSAMRSGTRIGNELLELAADVDVQHIVMGHEPKGLAGRLREGDAAVAVIDAADVPVTIVPEG,not soluble
5,SLQSIIGKHKDEGKITPEYLKKIDAYWRAANFISVGQLYLLDNPLLREPLKPEHLKRKVVGHWGTIPGQNFIYAHLNRVIKKYDLDMIYVSGPGHGGQVMVSNSYLDGTYSEVYPNVSRDLNGLKKLCKQFSFPGGISSHMAPETPGSINEGGELGYSLAHSFGAVFDNPDLITACVVGDGEAETGPLATSWQANKFLNPVTDGAVLPILHLNGYKISNPTVLSRIPKDELEKFFEGNGWKPYFVEGEDPETMHKLMAETLDIVTEEILNIQKNARENNDCSRPKWPMIVLRTPKGWTGPKFVDGVPNEGSFRAHQVPLAVDRYHTENLDQLEEWLKSYKPEELFDENYRLIPELEELTPKGNKRMAANLHANGGLLLRELRTPDFRDYAVDVPTPGSTVKQDMIELGKYVRDVVKLNEDTRNFRIFGPDETMSNRLWAVFEGTKRQWLSEIKEPNDEFLSNDGRIVDSMLSEHLCEGWLEGYLLTGRHGFFASYEAFLRIVDSMITQHGKWLKVTSQLPWRKDIASLNLIATSNVWQQDHNGYTHQDPGLLGHIVDKKPEIVRAYLPADANTLLAVFDKCLHTKHKINLLVTSKHPRQQWLTMDQAVKHVEQGISIWDWASNDKGQEPDVVIASCGDTPTLEALAAVTILHEHLPELKVRFVNVVDMMKLLPENEHPHGLSDKDYNALFTTDKPVIFAFHGFAHLINQLTYHRENRNLHVHGYMEEGTITTPFDMRVQNKLDRFNLVKDVVENLPQLGNRGAHLVQLMNDKLVEHNQYIREVGEDLPEITNWQWHV,soluble
6,VHYGLKGITCVETSISHIDGEKGRLIYRGHHAKDIALNHSFEEAAYLILFGKLPSTEELQVFKDKLAAERNLPEHIERLIQSLPNNMDDMSVLRTVVSALGENTYTFHPKTEEAIRLIAITPSIIAYRKRWTRGEQAIAPSSQYGHVENYYYMLTGEQPSEAKKKALETYMILATEHGMNASTFSARVTLSTESDLVSAVTAALGTMKGPLHGGAPSAVTKMLEDIGEKEHAEAYLKEKLEKGERLMGFGHRVYKTKDPRAEALRQKAEEVAGNDRDLDLALHVEAEAIRLLEIYKPGRKLYTNVEFYAAAVMRAIDFDDELFTPTFSASRMVGWCAHVLEQAENNMIFRPSAQYTGAIPEEV,soluble
7,MQKRVKEGPFTTEWIDLYLEEAVRKGIKEVGIVDHLYRFHEAKGYYEKYVDISDSKLGRIQKEWLDQVKVVSLYDFTKAIEEAKERWGKRGVTLKLGIEADYFIGCEGELKELLALGDFDYVIGSVHFLNGWGFDNPDTKEYFEVHDLRALYDMFFKTVESAIRTELFDIIAHLDNIKVFNYRLDENEQLSYYEEIACALVETNTATEINAGLYYRYPVREMCPSPLYLQVLAKYGVPITISSDAHYPNDLGNYVQENIQTLRAHGVTQVATFTKRARVMRSLEEEVTNSK,not soluble
8,MGSDKIHHHHHHMPYSSKEEAAQGWADIIARARSCSAGAARKAVAQLGRRDLFFLLTRLLGREEMFNDWCFARCAEVQRQPDGMLDLWAREHYKSTIITFGQSIRDILNDPEITIGIFSHSRPVAKGFLAQIKHEFEQNHALKTLYPDVLYSDPKRQSPRWSLDGGLVVRRSTNPKEATVEAWGLVDGQPTGKHFRLLVYDDVVTRESVTSPEMIAKVTECWALSLNLGARGGACRTIGTRYHYNDTYKTMMDRKAAEPRIHAATADGTPDGPSVFLPQNELADKRRRMGPFVFGCQMLQNPVADRMQGFREEWLRWWQPGAASWQAMNRYILVDPAASRKEQADWTVMLVVGLGADGNYYLIDGIRDRLNLTGRAGALFRLHRTYRPLAVGYEQYGMQADIEYMHTEMDRRNHRFDITPLAGRLAKADRIRRLVPLFEGGRVYLPRVCPFTDSEGRQRDLSRELVTEEYLAFPVCGHDDMLDCLARITDSALGAHPAVDSNAQYESTANMEYPLWT,not soluble
9,MKIAIIGAGIGGLTAAALLQEQGHTIKVFEKNESVKEIGAGIGIGDNVLKKLGNHDLAKGIKNAGQILSTMTVLDDKDRLLTTVKLKSNTLNVTLPRQTLIDIIKSYVKDDVIFTNHEVTHIDNETDKVTIHFAEQESEAFDLCIGADGIHSKVRQSVNADSKVLYQGYTCFRGLIDDIDLKHPDCAKEYWGRKGRVGIVPLLNNQAYWFITINSKENNHKYSSFGKPHLQAYFNHYPNEVREILDKQSETGILLHNIYDLKPLKSFVYGRTILLGDAAHATTPNMGQGAGQAMEDAIVLVNCFNAYDFEKALQRYDKIRVKHTAKVIKRSRKIGKIAQYRSRLFVAVRNRIMKMMPNALAAGQTKFLYKSKEKLEHHHHHH,soluble
10,MLLHLPNGDVLCVWFGGTQEGIADISIYMSRLVKDSGSWSKAAKLSEDATRSEQNPVLFLAPDNVLWLLYTAQKSGNQDTAIVRYRQSTDLGATWGEIGTLLDQPGTFIRQPITVLENGDWLLPVFYCRVQPGEKWVGNDDDSAVKISSDQGKTWREYPVPNSTGCVHMNITPLQDGTLLALYRSRWADFIYQSRSTDGGKTWSEPVATDLPNNNSSIQVTTLKNGHLALVFNHMSAADATDRRLSLYDELEHHHHHH,soluble
11,MSGATPVFTEINQIQGTGDKSPLISSGFISDDEYFVQGVVTARGESLLKGFYLQGLNDDFDPNSSEGIFVSTGSAPSLEIQPGALVCVKAKVQEYYGQTQLKPDTNNFLVQGHQAPVSVTELTINENETLAQALERHEGMQVKLTSHSDLRITRNFSFDYASKRNNMVLSHGEPLFKPTQLFAAESPEAIQLAEENAKRQITIESDNKAPNGEVPYFPDFATDSNQDGSADSYLRLGARIEGLEGVIAYSYGQYRLVTTNTISQENIITQAFDEDGDTLFNVERTDEPSIDDADLTITSFNVLNYFTSVAAGGLEHHHHHH,not soluble
12,TSSLHPTRGKLLKRFAQIGPYIREQQCQESQFFFDCLAVCVNKKVTPEKREFWGWWMELERNGEQLIYYYQVGLFDKNGDWVNQVISKKDVIESIHETLIRFHDFLQAAVSELEMTLVPDEKMSNFPLPL,soluble
13,MADHAHNLRATFGHGRPIGVITRGTTGFNRLRRCDRWMAHHPLIQQALRRTSDPIALDVGYGASFTTTVEWARWLRTMRDDVRVTGLEIDPERVLPPRDGVTFELGGFELAGYQPTLVRAFNVLRQYDVDQVMDAWEMVTSRLQPGGFFVEGTCDELGRRSTWVLLNHAGPQSLTLCWDPFDVERPSDIAERLPKILIHRNVAGEKIHDVLLRTDEAWDRCAPWASYGPRVRWRAARAMLMDMGIPMSIIRRPVRDNQLTVPWSIVDPTT,not soluble
14,MAATVVIVAWIANRPPASSHEPSPTPNTQLAEQPLIGLGGGVTVRELTQDTPFSLVALTGDLAGTSARVRAKRPDGDWGPWYQTEYETEPRDPAGTDGSVELGGLNPGPRSTDPVFVGTTTTVQVAVTRPIDAPITQPPAGRPPNDLLDSGLGYRPATKEQPFGQNISAILISPPQAPPGTQWTPPTAVTMAGQPPAIISRAEWGADESLRCETPEYDRGVRAAVVHHTAGSNDYSPLESAGIVKAIYTYHSKTLGWCDIAYNALVDKYGQVFEGSAGGLTKPVEGFHTGGFNRNTWGVAMIGNFDDVAPTPIQIRTVGRLLGWRLGMDDVDPRSMVDLQSAGSSYTTFPGGAIARLPAIFTHRDVGNTDCPGNAAYAVMDEIRDIAAHFNDPPEELIKALEGGAIYQRWQALGGMNSALGAPTSPEADAADGARYATFAKGAMYWSPVTDAQPITGAIYEAWASQSYERGPLGLPTSAEIQEPLQITQNFQHGTLNFERLTGNVTEVVDGITTPLATRPPSGPTVPPEHFTLPTHPIT,soluble
15,DQVLKGAALVGHNVLVPSAQVAIDATGSAKGVVAATSAGFVNFEITDANGTFVKQLSVPASAAGEVSFAWDGTDANGNRMAAGKYGITATQTDTAGAKSKLATYVDAPVDSVTIGSDGLYLNLTGLGTSPLANVLRVS,soluble
16,MGSDKIHHHHHHMQYIHVVNGDVAGNTLRQALAQAARPDPVVVLRDDLAVGPLVDVDSTGSIRSGFWQRVAPHTDIDFAAEMRQALDQLQKLRQSDMEIAIWHGQSAADQLMLRRVVFHLYQAPQRINEVAMDLRELELPPQAGLAAIGMYSPARLARRFSTIAPVSVLRLGRLGYEWQQNVRENADVRLWKGNTLVAAAYHSIDDIIMERAPSEWTPAAEVVGSVMGAIEGLLASDWFVFWRCRELISMGRMVLRGNADSLDTCELRRHVIASAE,not soluble
17,MGSDKIHHHHHHMVARRRLDAELVRRKIARSREHAVEMIRGRRVFVAGMLALKPATVVEPEVSIRVEEDASEDWASRGAHKLLGALESFEPLGLKVKGRRVLDAGASTGGFTDVLLRREASEVVAVDVGYGQLIWRLQNDDRVRVVDRTNIRYMTLEDTGGECDMMVGDLSFISLKLTLPAIAKVLSDGADLLPMVKPQFEVGKDRLGSGGVVRSPELRAEVTADVAKFAATLGLSLKHVVASPLPGPSGNVEYFLWLVKDGGASMPDDQQLSAMIDTAVKEGPQ,not soluble
18,MPSTNLTKRDWEKDHVYLVQFPRAGCIPSPSPYAFKVETFLRVADIPYTNINNEFKKMSARGQIPFIELNGRQHADSTIIIDNLTEHFHKSDLEDLSASDKAIARAFFALLEHHLCWVSLYSRGQDFGWLATDTGFGRLLTGIKGFAFKNFIVKSFTKKVRGRAAAQGMGTFSREEVLDQAKKDLDAISTQLGDKPYLFGSSIKTIDVTAFAHLAELIYTPQFSPEIRAYIDEKVPNVMEYVIRIKEKYWPDWEETTNTMNMATVWKKA,not soluble

# Source: the DeepSol protein solubility set
